To fix the notation:
B1: P2RY14 (parent)
chain: KKIFKSHLKSSRNSTSVKKKSSRN

These results are taken from the supplement of paper PMC10567573.
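Further: lentivirally expressed fusions sorted by FACS into six bins by GFP to DsRed ratio, PSI derived from sequencing read proportions per bin multiplied by bin number.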

This data set covers variants of B1. Briefly: protein stability index of a GFP-peptide fusion (GPS, HEK-293T) (PSI 1-6); higher = more stable. The conditions noted are these: c terminus: a fixed tail appended.
As to KKIFKSHLKSSRYSTSVKKKSSRN [N13Y], the protein stability index was 3.6. As to KKIFKSHLKSSRFSTSVKKKSSRN [N13F], the protein stability index turned out to be 3.77. In the case of KKIFKSHLKSSRISTSVKKKSSRN [N13I], the protein stability index amounted to 4.15. For KKIFKSHLKSSRWSTSVKKKSSRN [N13W], the protein stability index amounted to 3.41. For KKIFKSHLKSSRDSTSVKKKSSRN [N13D], the protein stability index came to 3.68. Take KKIFKSHLKSSRPSTSVKKKSSRN [N13P]: the protein stability index was determined as 3.45. Turning to KKIFKSHLKSSRVSTSVKKKSSRN [N13V], the protein stability index was 4.22.

Turning to KKIFKSHLKSSRHSTSVKKKSSRN [N13H], the protein stability index turned out to be 3.52.

For the variant KKIFKSHLKSSRLSTSVKKKSSRN [N13L], the protein stability index came out at 3.3.

For KKIFKSHLKSSRRSTSVKKKSSRN [N13R], the protein stability index stood at 4.38.

For the variant KKDFKSHLKSSRNSTSVKKKSSRN [I3D], the protein stability index was determined as 4.95. In the case of KKCFKSHLKSSRNSTSVKKKSSRN [I3C] it was 4.27; in that of KKMFKSHLKSSRNSTSVKKKSSRN [I3M], 4.77; in that of KKEFKSHLKSSRNSTSVKKKSSRN [I3E], 5.07. For KKNFKSHLKSSRNSTSVKKKSSRN [I3N], the protein stability index is 4.63. In the case of KKGFKSHLKSSRNSTSVKKKSSRN [I3G], the protein stability index was found to be 4.28. For the variant KKQFKSHLKSSRNSTSVKKKSSRN [I3Q], the protein stability index was 4.14. For the variant KKVFKSHLKSSRNSTSVKKKSSRN [I3V], the protein stability index stood at 4.04. Take KKYFKSHLKSSRNSTSVKKKSSRN [I3Y]: the protein stability index was 4.39.

For the variant KKKFKSHLKSSRNSTSVKKKSSRN [I3K], the protein stability index was 4.18. In the case of KKFFKSHLKSSRNSTSVKKKSSRN [I3F], the protein stability index was 3.91. Take KKLFKSHLKSSRNSTSVKKKSSRN [I3L]: the protein stability index amounted to 4.23.

Regarding KKWFKSHLKSSRNSTSVKKKSSRN [I3W], the protein stability index worked out at 3.79. As for WKIFKSHLKSSRNSTSVKKKSSRN [K1W], the protein stability index was 2.7. The same measure for NKIFKSHLKSSRNSTSVKKKSSRN [K1N]: 4.4; for AKIFKSHLKSSRNSTSVKKKSSRN [K1A]: 4.12; for TKIFKSHLKSSRNSTSVKKKSSRN [K1T]: 4. Consider YKIFKSHLKSSRNSTSVKKKSSRN [K1Y], for which the protein stability index was 3.58. Consider PKIFKSHLKSSRNSTSVKKKSSRN [K1P], for which the protein stability index worked out at 4.22.

For the variant KKIFKSHLKSSRNSTSVKKKSSRL [N24L], the protein stability index turned out to be 4.12. The same measure for KKIFKSHLKSSRNSTSVKKKSSRS [N24S]: 4.07. KKIFKSHLKSSRNSTSVKKKSSRW [N24W]: the protein stability index came out at 3.6. As to KKIFKSHLKSSRNSTSVKKKSSRC [N24C], the protein stability index is 3.55. The same measure for KKIFKSHLKSSRNSTSVKKKSSRI [N24I]: 3.61. Consider KKIFKSHLKSSRNSTSVKKKSSRP [N24P], for which the protein stability index amounted to 3.91.

As to KKIFKSHLKSSRNSTSVKKKSSRR [N24R], the protein stability index was found to be 4.16.

Regarding KKIFKSHLKSSRNSTSVKKKSSRQ [N24Q], the protein stability index was 4.23. On to KKIFKSHLTSSRNSTSVKKKSSRN [K9T], for which the protein stability index amounted to 3.98. In the case of KKIFKSHLVSSRNSTSVKKKSSRN [K9V] it was 3.39. As for KKIFKSHLESSRNSTSVKKKSSRN [K9E], the protein stability index is 4.51. Consider KKIFKSHLNSSRNSTSVKKKSSRN [K9N], for which the protein stability index stood at 4.5. Regarding KKIFKSHLASSRNSTSVKKKSSRN [K9A], the protein stability index turned out to be 4.07. For the variant KKIFKSHLPSSRNSTSVKKKSSRN [K9P], the protein stability index amounted to 4.47. The same measure for KKIFKSHLSSSRNSTSVKKKSSRN [K9S]: 3.87; for KKIFKSHLYSSRNSTSVKKKSSRN [K9Y]: 3.67. Regarding KKIFKSHLDSSRNSTSVKKKSSRN [K9D], the protein stability index was 4.05. The same measure for KKIFKSHLKSSRNSTSVAKKSSRN [K18A]: 3.8; for KKIFKSHLKSSRNSTSVEKKSSRN [K18E]: 3.98. For KKIFKSHLKSSRNSTSVYKKSSRN [K18Y], the protein stability index was determined as 3.66. With KKIFKSHLKSSRNSTSVTKKSSRN [K18T], the protein stability index amounted to 4.17.

With KKIFKSHLKSSRNSTSVPKKSSRN [K18P], the protein stability index was 4.29. In the case of KKIFKSHLKSSRNSTSVCKKSSRN [K18C], the protein stability index was found to be 3.34. On to KKIFKSHLKSSRNSTSVSKKSSRN [K18S], for which the protein stability index amounted to 4.21. As to KKIFKSHLKSSRNSTSVHKKSSRN [K18H], the protein stability index was found to be 4.07. Take KKIFKSHLKSSRNSTSVVKKSSRN [K18V]: the protein stability index was 3.74. Consider KKIFKSHLKSSRNSTSVNKKSSRN [K18N], for which the protein stability index came out at 4.27. KKIFKSHLKSSRNSTSVRKKSSRN [K18R]: the protein stability index is 3.88. In the case of KKIFKSHLKSSRNATSVKKKSSRN [S14A], the protein stability index worked out at 3.5. For KKIFKSHLKSSRNDTSVKKKSSRN [S14D], the protein stability index was determined as 4.14. Take KKIFKSHLKSSRNITSVKKKSSRN [S14I]: the protein stability index amounted to 4.14. As to KKIFKSHLKSSRNHTSVKKKSSRN [S14H], the protein stability index turned out to be 4.35. As for KKIFKSHLKSSRNNTSVKKKSSRN [S14N], the protein stability index was determined as 4.44. With KKIFKSHLKSSRNRTSVKKKSSRN [S14R], the protein stability index is 4.36. Regarding KKIFKSHLKSSRNLTSVKKKSSRN [S14L], the protein stability index stood at 3.88.

Regarding KKIFNSHLKSSRNSTSVKKKSSRN [K5N], the protein stability index was 4.33.

For KKIFLSHLKSSRNSTSVKKKSSRN [K5L], the protein stability index stood at 3.76. For the variant KKIFISHLKSSRNSTSVKKKSSRN [K5I], the protein stability index was found to be 3.55.

As for KKIFCSHLKSSRNSTSVKKKSSRN [K5C], the protein stability index is 4.05. As to KKIFHSHLKSSRNSTSVKKKSSRN [K5H], the protein stability index was found to be 4.33. KKIFGSHLKSSRNSTSVKKKSSRN [K5G]: the protein stability index was found to be 4.44.

As to KKIFKSHLKSSRNSGSVKKKSSRN [T15G], the protein stability index came to 4.31. Take KKIFKSHLKSSRNSWSVKKKSSRN [T15W]: the protein stability index was 3.46. Turning to KKIFKSHLKSSRNSESVKKKSSRN [T15E], the protein stability index worked out at 4.35. KKIFKSHLKSSRNSCSVKKKSSRN [T15C]: the protein stability index worked out at 3.63. The same measure for KKIFKSHLKSSRNSKSVKKKSSRN [T15K]: 3.84; for KKIFKSHLKSSRNSYSVKKKSSRN [T15Y]: 3.6; for KKIFKSHLKSSRNSQSVKKKSSRN [T15Q]: 4.09. KKIFKSHLKSGRNSTSVKKKSSRN [S11G]: the protein stability index is 4.26. For the variant KKIFKSHLKSYRNSTSVKKKSSRN [S11Y], the protein stability index was 3.37. Consider KKIFKSHLKSVRNSTSVKKKSSRN [S11V], for which the protein stability index turned out to be 4.31.

On to KKIFKSHLKSTRNSTSVKKKSSRN [S11T], for which the protein stability index amounted to 4.22. As to KKIFKSHLKSERNSTSVKKKSSRN [S11E], the protein stability index is 4.35. Turning to KKIFKSHLKSFRNSTSVKKKSSRN [S11F], the protein stability index worked out at 3.69. On to KKIFKSHLKSNRNSTSVKKKSSRN [S11N], for which the protein stability index is 3.96. The same measure for KKIFKSHLKSCRNSTSVKKKSSRN [S11C]: 3.93; for KKIFKCHLKSSRNSTSVKKKSSRN [S6C]: 4.06; for KKIFKKHLKSSRNSTSVKKKSSRN [S6K]: 4.33. Regarding KKIFKMHLKSSRNSTSVKKKSSRN [S6M], the protein stability index was 3.82. In the case of KKIFKYHLKSSRNSTSVKKKSSRN [S6Y] it was 3.34; in that of KKIFKQHLKSSRNSTSVKKKSSRN [S6Q], 4.07. With KKIFKEHLKSSRNSTSVKKKSSRN [S6E], the protein stability index is 4.36. In the case of KKIFKSQLKSSRNSTSVKKKSSRN [H7Q], the protein stability index was determined as 3.67. For the variant KKIFKSSLKSSRNSTSVKKKSSRN [H7S], the protein stability index was 4.15. As to KKIFKSLLKSSRNSTSVKKKSSRN [H7L], the protein stability index stood at 3.7.
